Results: ChEMBL document CHEMBL1143427, “Interactions of ceftobiprole with beta-lactamases from molecular classes A to D” (Antimicrob Agents Chemother, 2007)

How the values were obtained:
[1] = system: CC(C)(O/N=C(\C(=O)N[C@@H]1C(=O)N2C(C(=O)[O-])=C(C[n+]3ccccc3)CS[C@H]12)c1csc(N)n1)C(=O)O; assay: (§1) Activity of Morganella morganii AmpC assessed as drug hydrolysis by spectrophotometry
[2] = system: Nc1nc(/C(=N/O)C(=O)N[C@@H]2C(=O)N3C(C(=O)O)=C(/C=C4\CCN([C@@H]5CCNC5)C4=O)CS[C@H]23)ns1; assay: as §1
[3] = system: O=C(Cc1cccs1)N[C@@H]1C(=O)N2C(C(=O)[O-])=C(C[n+]3ccccc3)CS[C@H]12; assay: as §1
[4] = system: CO/N=C(\C(=O)N[C@@H]1C(=O)N2C(C(=O)[O-])=C(C[N+]3(C)CCCC3)CS[C@H]12)c1csc(N)n1; assay: as §1
[5] = system: O=C(Cc1cccs1)N[C@@H]1C(=O)N2C(C(=O)O)=C(/C=C/c3ccc([N+](=O)[O-])cc3[N+](=O)[O-])CS[C@H]12; assay: as §1
[6] = system: CC1(C)S[C@@H]2[C@H](NC(=O)Cc3ccccc3)C(=O)N2[C@H]1C(=O)O; assay: as §1
[7] = system: CC(C)(O/N=C(\C(=O)N[C@@H]1C(=O)N2C(C(=O)[O-])=C(C[n+]3ccccc3)CS[C@H]12)c1csc(N)n1)C(=O)O; assay: (§2) Ratio of Kcat to Km of Morganella morganii AmpC assessed as drug hydrolysis by spectrophotometry
[8] = system: Nc1nc(/C(=N/O)C(=O)N[C@@H]2C(=O)N3C(C(=O)O)=C(/C=C4\CCN([C@@H]5CCNC5)C4=O)CS[C@H]23)ns1; assay: as §2
[9] = system: O=C(Cc1cccs1)N[C@@H]1C(=O)N2C(C(=O)[O-])=C(C[n+]3ccccc3)CS[C@H]12; assay: as §2
[10] = system: CO/N=C(\C(=O)N[C@@H]1C(=O)N2C(C(=O)[O-])=C(C[N+]3(C)CCCC3)CS[C@H]12)c1csc(N)n1; assay: as §2
[11] = system: O=C(Cc1cccs1)N[C@@H]1C(=O)N2C(C(=O)O)=C(/C=C/c3ccc([N+](=O)[O-])cc3[N+](=O)[O-])CS[C@H]12; assay: as §2
[12] = system: CC1(C)S[C@@H]2[C@H](NC(=O)Cc3ccccc3)C(=O)N2[C@H]1C(=O)O; assay: as §2
[13] = system: CC(C)(O/N=C(\C(=O)N[C@@H]1C(=O)N2C(C(=O)[O-])=C(C[n+]3ccccc3)CS[C@H]12)c1csc(N)n1)C(=O)O; assay: (§3) Ratio of Kcat to Km of Pseudomonas aeruginosa VIM2 assessed as drug hydrolysis by spectrophotometry
[14] = system: O=C(Cc1cccs1)N[C@@H]1C(=O)N2C(C(=O)[O-])=C(C[n+]3ccccc3)CS[C@H]12; assay: as §3
[15] = system: CC(C)(O/N=C(\C(=O)N[C@@H]1C(=O)N2C(C(=O)[O-])=C(C[n+]3ccccc3)CS[C@H]12)c1csc(N)n1)C(=O)O; assay: (§4) Activity of Pseudomonas aeruginosa VIM2 assessed as drug hydrolysis by spectrophotometry
[16] = system: Nc1nc(/C(=N/O)C(=O)N[C@@H]2C(=O)N3C(C(=O)O)=C(/C=C4\CCN([C@@H]5CCNC5)C4=O)CS[C@H]23)ns1; assay: as §4
[17] = system: O=C(Cc1cccs1)N[C@@H]1C(=O)N2C(C(=O)[O-])=C(C[n+]3ccccc3)CS[C@H]12; assay: as §4

## Beta-lactamase (Morganella morganii) (from UniProt P94958)
[1]
  Km: 14 µM
  kcat: < 1 s⁻¹
[2]
  Km: 23 µM
  kcat: < 0.047 s⁻¹
[3]
  Km: 260 µM
  kcat: 740 s⁻¹
[4]
  Km: 690 µM
  kcat: < 0.35 s⁻¹
[5]
  Km: 31 µM
  kcat: 1200 s⁻¹
[6]
  Km: 7.9 µM
  kcat: 190 s⁻¹
[7]
  kcat/Km: < 71000 M⁻¹ s⁻¹
[8]
  kcat/Km: < 2000 M⁻¹ s⁻¹
[9]
  kcat/Km: 2.8e+06 M⁻¹ s⁻¹
[10]
  kcat/Km: < 510 M⁻¹ s⁻¹
[11]
  kcat/Km: 3.9e+07 M⁻¹ s⁻¹
[12]
  kcat/Km: 2.4e+07 M⁻¹ s⁻¹

## Beta-lactamase VIM-2 (Pseudomonas aeruginosa) (from UniProt Q9K2N0)
[13]
  kcat/Km: 1500 M⁻¹ s⁻¹
[14]
  kcat/Km: 86000 M⁻¹ s⁻¹
[15]
  Km: 150 µM
  kcat: 0.23 s⁻¹
[16]
  Km: 46 µM
  kcat: 15 s⁻¹
[17]
  Km: 1400 µM
  kcat: 120 s⁻¹
